Test [1] concerns the target T1, cancer cell-associated GPC2 (Homo sapiens, UniProt Q8N158).
T1 sequence (Q8N158 24-554): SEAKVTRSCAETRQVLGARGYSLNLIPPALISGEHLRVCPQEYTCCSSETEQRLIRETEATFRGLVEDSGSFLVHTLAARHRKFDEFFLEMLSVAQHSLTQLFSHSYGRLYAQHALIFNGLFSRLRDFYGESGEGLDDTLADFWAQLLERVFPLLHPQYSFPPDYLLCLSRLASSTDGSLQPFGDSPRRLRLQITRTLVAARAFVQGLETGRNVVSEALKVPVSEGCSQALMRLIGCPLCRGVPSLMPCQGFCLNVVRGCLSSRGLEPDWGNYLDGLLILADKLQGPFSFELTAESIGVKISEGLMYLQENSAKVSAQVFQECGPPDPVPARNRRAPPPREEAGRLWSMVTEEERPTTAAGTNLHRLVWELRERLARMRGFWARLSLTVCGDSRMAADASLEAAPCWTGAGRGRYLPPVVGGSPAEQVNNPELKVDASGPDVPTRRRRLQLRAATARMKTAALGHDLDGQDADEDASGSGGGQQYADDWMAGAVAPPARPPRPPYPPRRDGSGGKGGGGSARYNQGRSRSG
The test can be described thus: Targeting of GPC2 by phage display derived human antibodies. Conditions: isolated from phage display antibody library, affinity matured. Type of test: binding.

Another test deals with T2, GPC2 (Homo sapiens, UniProt Q8N158).
T2 sequence (Q8N158 24-554): T1 sequence (Q8N158 24-554)
The test is described as follows: In vitro characterization of GPC2 antibodies. Conditions: for use in CAR-T, ADC and bispecific antibody development.

Results on 3 molecules are retold here after patent US11814440B2, “Glypican 2 as a cancer marker and therapeutic target” (THE CHILDREN'S HOSPITAL OF PHILADELPHIA, priority 2015, dated 2023).

B1: m203 (antibody, V domains shown)
VH: EVQLVQSGGGLVQPGGSLRLSCAASGFTFSSYAMSWVRQAPGKGLEWVSAISGSGGSTYYADSVKGRFTISRDNSKNTLSLQMDSLRPEDTAVYYCAKSRDSGNYLDAFDFWGQGTMVTVSS
VL: DIQLTQSPSTLSASVGDRVTITCRASQSISSWLAWYQQKAGKAPRLLIYDASTLESGVPSRFSGTGSGTYFTLTISSLQPEDFATYYCQQFNSFPLTFGGGTKVEIKR
With B1, in test [1], the “specific targeting of cancer cell-associated GPC2” value is “specifically targeting cancer cell-associated GPC2”. Besides, the “therapeutic activity in in vitro characterization” value (shortened to “therapeutic activity”) in the test with GPC2 was “promising therapeutic activity”.

B2: m201 (antibody, V domains shown)
VH: EVQLVETGGGVVKPGGSLRLSCAASGFTFSDYYMSWIRQAPGKGLEWVSYISSSGSTIYYADSVKGRFTISRDNSKNTLYLQMNSLRAEDTAVYYCARESGYDYVFDYWGQGTLVAVSS
VL: DIQMTQSPSTLSAFVGDRVTITCRASQSISSWLAWYQQKPGKAPKLLIYAASTLQSGVPSRFSGSGSGTEFTLTISSLQPEDFATYYCQQLNSYPITFGQGTRLEIKR
As for B2, the “therapeutic activity” value with GPC2 is given as “promising therapeutic activity”.

B3: m202 (antibody, V domains shown)
VH: QVQLVQSGGGLIQPGGSLRLSCAASGFTVSSNYMSWVRQAPGKGLEWVSVIYSGGSTYYADSVKGRFTISRDNSKNTLYLQMNSLRAEDTAVYYCARDSNAFDIWGQGTMVTVSS
VL: EIVLTQSPLSLPVTPGEPASISCRSSQSLLYSNGYNYLDWYLQKPGKSPQVLIYLGSNRASGVPDRFSGSGSGTDFTLKISRVEAEDVGVYYCMQALQTPITFGQGTRLEIKR
Regarding B3, the “specific targeting of cancer cell-associated GPC2” value in test [1] is “specifically targeting cancer cell-associated GPC2”. The “therapeutic activity” value in the test with GPC2 is listed as “promising therapeutic activity”.
